This is an account of results in paper PMC9700832 (2022).

B1: B. thuringiensis serovar israelensis LexA (natural protein)
chain: MEKLTKRQQDILDFIKLKVQEKGYPPSVREIGQAVGLASSSTVHGHLSRLEEKGYIRRDPTKPRAIEILGEDRMDTETQSVIQVPIVGKVTAGLPITAVESVEEHFPLPASIVAGADQVFMLRISGDSMIEAGIFDGDLVVVRQQQSAYNGEIVVALTEDNEATVKRFYKEKDHFRLQPENSSLEPIILKQVSVIGKVIGVYRDLH

Assay in all cases: SPR
Assay [1] deals with tectiviral gp7 homolog from the phage found in B. thuringiensis serovar aizawai (tectiviral phage found in B. …).
Assay [2] has as its target tectiviral gp7 homolog from B. cereus AND1284 phage Sato (phage Sato (B. cereus AND1284)).
In assay [3] the target is tectiviral gp7 homolog from the phage found in B. cereus VD184 (tectiviral phage found in B. cereus …).
Assay [4] concerns the target tectiviral gp7 homolog from B. anthracis phage AP50 (phage AP50 (B. anthracis)).
The target of assay [5] is B1.

For orientation: Kd means the free concentration of one partner at which half of the binding sites on the other are occupied at equilibrium, for simple one-to-one binding. On to B1, for which the dissociation constant Kd in assay [1] amounted to 150 nM; in assay [2], 190 nM; in assay [3], 148 nM; in assay [4], 167 nM.
In turn, MRDKLLDFIIELSQSSKQVVAKDYVIDRLMQVTKEDYKEMEKKTEGKKN (natural protein) [tectiviral gp7 homolog from B. mycoides VDm034 phage Lima] showed a Kd in assay [5] of 185 nM.
Same read-out and setting: as for MRDKLLDFIIELSQSSKQVVSKSYVIDRLMQVTKEDYKELEKNVEGKKDD (natural protein) [gp7 protein of GIL01 phage], the figure is 169 nM.
